Values joined by “and” are separate entries in the source; they are usually repeats but may differ in a detail not shown here. Identical values can stand only once.
Columns and labels:
[1] = target: pennycress (Thlaspi arvense) biotin carboxylase (BC) subunit of the plastid heteromeric acetyl-CoA carboxylase (Thlaspi arvense (field pennycress)); assay: cross-linking
[2] = target: pennycress (Thlaspi arvense) biotin carboxylase (BC) subunit of the plastid heteromeric acetyl-CoA carboxylase (Thlaspi arvense (field pennycress)); assay: cryo-EM structure

pennycress (Thlaspi arvense) biotin carboxylase (BC) subunit of the plastid heteromeric acetyl-CoA carboxylase (enzyme)
stoichiometry N [1]: 2 and 4 | stoichiometry N [2]: 2 and 4 and 6
